Among the data in US20170157165, “APTAMER FOR FGF2 AND USE THEREOF” (RIBOMIC INC., published 2017) are activity and IC50 values, retold here.

Residue numbers refer to the chain shown, from its start.

Common to all, as to conditions: tags: Peprotech
Series [1] concerns the target T1, FGF2 (Homo sapiens, UniProt P09038 P09038:135-288). In words: inhibition; SPR inhibition of FGF2-FGFR1alpha(IIIc); each 0.1 uM. As for the experimental part: BIAcore2000 manufactured by BIAcore was used for the measurement. As directed in BIAcore Company's protocol, Protein A (21181, manufactured by PIERCE) was immobilized on a CM5 sensor chip. About 1,000 RU of human FGFR1α (IIIc), R2α (IIIc), R3 (IIIc), R4 (manufactured by R&D Systems) fused with the Fc portion of IgG (manufactured by R&D systems) was each immobilized thereon. As analyte, a mixture of FGF2 (0.1 μM), heparin (0.1 μM) (manufactured by Pfizer) and aptamer (0.15 μM) was flown. Before an inhibitory test, a mixture of FGF2 and heparin was confirmed to bind to 4 kinds of receptors. […] A sensorgram showing that the aptamer shown by aptamer ID 1 inhibits binding of FGF2 and FGFR1α(IIIc), 2α(IIIc), 3(IIIc), 4 is shown in FIG. 2.
In addition, the inhibitory rate against each of the 4 kinds of receptors was determined. The inhibitory rate was determined with the maximum binding amount of the FGF2 and heparin mixture as 0, and the binding amount with an injection buffer alone as 100. The binding amount here means the RU value of the peak top of sensorgram. The inhibitory rate was calculated. […] The inhibitory rate of other aptamers was not more than 50%.
To enhance FGF2-binding activity, stability, drug deliverability and the like, the nucleic acids shown by aptamer IDs 3(1)-3(40), aptamer IDs 4 and 4(1)-4(4), aptamer ID 5 and aptamer ID 6 were chemically synthesized based on the aptamer shown in SEQ ID NO: 3. Here, the aptamer shown by aptamer ID 4 is the aptamer shown by aptamer ID 3(19) wherein one G(M) at the 5′-terminal and one C(M) at the 3′-terminal have been deleted. The aptamer shown by aptamer ID 5 is the aptamer shown by aptamer ID 3(19) wherein one G(M) has been added at the 5′-terminal and one C(M) has been added at the 3′-terminal. The aptamer shown by aptamer ID 6 is the aptamer shown by aptamer ID 3(19) wherein A(M) alone has been added at the 5′-terminal. These nucleic acids were produced by chemical synthesis.

Series [2] concerns the target T1, FGF2. The series can be described thus: cell_activity; HUVEC proliferation, FGF2 0.58 nM. As for the experimental part:
(§1) Human umbilical vein endothelial cells (HUVEC) were seeded in a 96 well flat bottom plate at 5×10³ cells per well, and cultured overnight using a medium EGM-2 Bullet Kit for endothelial cells (CC-3162 manufactured by Lonza) containing 2% fetal bovine serum and growth factors. Thereafter, the medium was discarded, the cells were washed twice with PBS buffer, and a mixture of the aptamer shown by aptamer ID 3(21) (5, 2.5, 1, 0.5 nM) and FGF2 (final concentration 0.5 nM), dissolved in a medium exclusively for endothelial cells containing 2% fetal bovine serum, was added. After 72 hr, viable cell number was examined using Cell Counting Kit-8. For the measurement of absorbance, a microplate reader (450 nm) was used. One sample was measured at n=3. As a positive control, anti-FGF2 antibody Anti-FGF, basic (Ab-3) Mouse mAb (3H3) (manufactured by Calbiochem) were used. With the OD value per well obtained by the addition of FGF2 alone and culture of the cells for 3 days as inhibitory activity 0%, and that of the cell obtained by FGF2 free culture for 3 days as inhibitory activity 100%, the inhibitory activity of the aptamer was calculated from the OD value per well obtained by culturing with the addition of a mixture of FGF2 and the aptamer. As a result, it was shown that the aptamer shown by aptamer ID 3(21) has a high inhibitory activity against FGF2.
By a method similar to the above except that the 96 well flat bottom plate was changed to a collagen-coated one, the activity of various aptamers was evaluated. The concentration of FGF2 added was 0.58 nM. As a negative control RNA, Macugen (registered trade mark) sequence without addition of PEG, and with C6 modification of the 5′-terminal and idT modification of the 3′-terminal was used.

For series [3], the target named is T1, FGF2. In words: cell_activity; HUVEC proliferation. On the procedure:
as §1
By a method similar to that in Example 5, the inhibitory activity of the aptamers shown by aptamer IDs 8-12 was measured.

For series [4], the target named is T1, FGF2. The series can be described thus: cell_activity; HUVEC proliferation, FGF2 0.5 nM. As for the experimental part: as §1

T1 sequence (P09038 135-288, one chain of several): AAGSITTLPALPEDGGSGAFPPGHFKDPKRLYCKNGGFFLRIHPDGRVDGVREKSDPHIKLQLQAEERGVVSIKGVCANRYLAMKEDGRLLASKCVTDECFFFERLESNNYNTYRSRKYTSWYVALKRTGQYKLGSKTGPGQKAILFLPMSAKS

In turn, GGGGAUACUAGGGCAUUAAUGUUACCAGUGUAGUCCCC (ssRNA, 2'-F at U9,U17,U22,U29,U31; 2'-OH at G13,G28,G30; all others 2'-OMe; 3' idT) [aptamer ID 5] returned an activity with FGF2 [1] of 94%. The molecule also yielded an IC50 with FGF2 [2] of 2.6 nM.
In the series with FGF2 [1], AGGGAUACUAGGGCAUUAAUGUUACCAGUGUAGUCCC (ssRNA, 2'-F at U9,U17,U22,U29,U31; 2'-OH at G13,G28,G30; all others 2'-OMe; 3' idT) [aptamer ID 6] gave an activity of 93%. In the series with FGF2 [2], this molecule registered an IC50 of 3.1 nM.

B1: aptamer ID 8 (ssRNA)
RNA: CGGAUACUAGGGCAUUAAUGUUACCAGUGUAGUCCG
modifications: 2'-F at U8,U16,U21,U28,U30; 2'-OH at G12,G27,G29; all others 2'-OMe; 5' NH2; 3' idT
B1: the IC50 with FGF2 [3] came to 5.6 nM.
Take GGGAUACUAGGGCAUUAAUGUUACCAGUGUAGUCCC (ssRNA, 2'-F at U8,U16,U21,U28,U30; 2'-OH at G12,G27,G29; all others 2'-OMe; 3' idT) [aptamer ID 3(19)]: in the series with FGF2 [1], the activity was found to be 93%. In the series with FGF2 [3], this molecule registered a 50% inhibitory concentration (IC50) of 3.4 nM.
On to GGGAUACUAGGGCGUUAACGUUACCAGUGUAGUCCC (ssRNA, 2'-F at U8,U16,U21,U28,U30; 2'-OH at G12,G27,G29; all others 2'-OMe) [aptamer ID 10], for which 4.9 nM corresponded to half-maximal inhibition with FGF2 [3] (IC50).
Turning to GGGAUACUAGGGCCUUAAGGUUACCAGUGUAGUCCC (ssRNA, 2'-F at U8,U16,U21,U28,U30; 2'-OH at G12,G27,G29; all others 2'-OMe) [aptamer ID 11], in the series with FGF2 [3], the IC50 came out at 13 nM.
On the same count and under the same terms, for GGGAUACUAGGGCAUUUAUGUUACCAGUGUAGUCCC (ssRNA, 2'-F at U8,U16,U21,U28,U30; 2'-OH at G12,G27,G29; all others 2'-OMe) [aptamer ID 12] the value was 2.3 nM.

B2: aptamer ID 3(21) (ssRNA)
RNA: B1 RNA with C1G, G36C
modifications: 2'-F at U8,U16,U21,U28,U30; 2'-OH at G12,G27,G29; all others 2'-OMe; 5' PEG 40K (GL2-400TS)-C6; 3' idT
In the series with FGF2 [1], B2 had an activity of 97%. Further, the IC50 with FGF2 [4] is around 1 nM.

B3: aptamer ID 9 (ssRNA)
RNA: B1 RNA with G2C, C35G
modifications: 2'-F at U8,U16,U21,U28,U30; 2'-OH at G12,G27,G29; all others 2'-OMe; 5' NH2; 3' idT
Regarding B3, half-maximal inhibition with FGF2 [3] (IC50) was put at 3.7 nM.
GGAUACUAGGGCAUUAAUGUUACCAGUGUAGUCC (ssRNA, 2'-F at U7,U15,U20,U27,U29; 2'-OH at G11,G26,G28; all others 2'-OMe; 3' idT) [aptamer ID 4] came in with an activity with FGF2 [1] of 95%. This molecule also had an IC50 in the series with FGF2 [2] of 5 nM.

B4: aptamer ID 4(4) (ssRNA)
RNA: GGAUACUAGGGCAUUAAUGUUACCAGUGUAGUCC
modifications: 2'-F at U7,G11,U15,U20,G26,U27,U29; 2'-OH at G28; all others 2'-OMe; PS between G28 and U29; 3' idT
As for B4, in the series with FGF2 [1], the activity is 96%. In the series with FGF2 [2], the IC50 was 4.5 nM.

B5: aptamer ID 4(3) (ssRNA)
RNA: B4 RNA
modifications: 2'-F at U7,G11,U15,U20,U27,U29; 2'-OH at G26,G28; all others 2'-OMe; PS between U27 and G28; 3' idT
B5: the activity in the series with FGF2 [1] is 96%. The molecule also gave an IC50 with FGF2 [2] of 4.6 nM.
For GGAUACUAGGGCAUUAAUGUUACCAGUGUAGUCC (ssRNA, 2'-F at U7,G11,U15,U20,G26,U27,U29; 2'-OH at G28; all others 2'-OMe; 3' idT) [aptamer ID 4(2)], in that order: 94% and 5.1 nM.
For GGAUACUAGGGCAUUAAUGUUACCAGUGUAGUCC (ssRNA, 2'-F at U7,G11,U15,U20,U27,U29; 2'-OH at G26,G28; all others 2'-OMe; 3' idT) [aptamer ID 4(1)], in the series with FGF2 [1], the activity is 93%. Moreover, 3.8 nM corresponded to half-maximal inhibition with FGF2 [2] (IC50).

Broadly, the IC50 is the concentration that inhibits the measured activity by half. High values mean weaker potency in that assay, low ones greater potency in that assay.
